The text below walks through data of PMC11623273, “Epitope-focused immunogens targeting the hepatitis C virus glycoproteins induce broadly neutralizing antibodies” (Science Advances, 2024).

One may read the Kd as the free concentration of one partner at which half of the binding sites on the other are occupied at equilibrium, for simple one-to-one binding. Low values mean tighter binding, high ones weaker binding. As usually defined, the koff is the rate constant with which the complex falls apart. High values mean a short-lived complex, low ones a long-lived complex. As usually defined, the kon is the second-order rate constant of association.

Experiment [1] has as its target T1, E1_S1 (design 1W4K_08), epitope scaffold presenting the HCV E1 epitope (residues 314-324) (designed scaffold from Pyrobaculum …).
T1 construct: also called E1_1W4K_08
T1 chain: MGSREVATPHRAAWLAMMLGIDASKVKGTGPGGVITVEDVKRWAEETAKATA
Briefly: grating-coupled interferometry (GCI, Creoptix WAVE). As to conditions: both partners purified.

Experiment [2] has as its target E2_S3_3 (design 4CIL_03), epitope scaffold presenting HCV E2 epitope I. As to conditions: both partners purified.
The target in experiment [3] is T2, E2_S2_1 (design 2K6Z_01), epitope scaffold presenting HCV E2 epitope I.
T2 chain: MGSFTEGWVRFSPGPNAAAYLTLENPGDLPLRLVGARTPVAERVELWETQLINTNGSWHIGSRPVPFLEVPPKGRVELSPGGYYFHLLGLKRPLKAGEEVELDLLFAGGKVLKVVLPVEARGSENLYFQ
Particulars: both partners purified.

Experiment [4] has as its target T1, E1_S1 (design 1W4K_08), epitope ….

B1: Fab fragment of neutralizing antibody IGH526 (Fab, V domains shown)
VH: VQLLEQSGAEVKRPGASVKVSCKASGYTFTSYAIHWVRQAPGQRLEWMGWINPGNGNAKYSQRFQGRVIISRDTSATTSYMELSSLTSEDTAVYSCARDRGFDLLTGHYLGLDPWGQGTLVTVSS
VL: ELTLTQPASASATPGQRVTISCSGSSSNIGGNTVNWYQHLPGAAPKLLIHNNDLRPSGVPDRFSGSKSGTSASLAVSGLQSEDEADYFCAAWDDGLNGWVFGGGTKLTVL
In the case of B1, in experiment [1], the equilibrium dissociation constant (Kd) worked out at 1.4 nM, the off-rate (koff) turned out to be 0.00181 s⁻¹ and the association rate constant (kon) is 1.32e+06 M⁻¹ s⁻¹.

B2: Fab fragment of neutralizing antibody HCV1 (Fab, V domains shown)
VH: EVQLLESGGGVVQPGRSLRLSCTASGFTFNNYGMHWVRQTPGKGLEWLAVIWFDENNKYYADSVRGRFTISRDNSKNTLFLQMNSLKTEDTAMYYCARDISLVRDAFIYFDFWGLGTLVTVSS
VL: ELTLTQSPATLSLSPGERATLSCRASQSVSSYLAWYQQKPGQAPRLLIYDASNRATGIPARFSGSGSGTDFTLTISSLEPEDFAVYYCQQRSNWITFGQGTRLEIK
notes: also called Fab HCV1; F(ab) HCV1
As to B2, in experiment [2], the Kd amounted to 2.8 nM, the koff stood at 0.000369 s⁻¹ and the kon was determined as 133000 M⁻¹ s⁻¹. In experiment [3], this molecule yielded a dissociation constant (Kd) of 23 nM, a dissociation rate constant (koff) of 0.00121 s⁻¹ and a kon of 52700 M⁻¹ s⁻¹.

B3: N15 (antibody, V domains shown)
VH: QVQLVESGGGVVQPGRSLRLSCAASGFTFSSYVMHWVRQAPGKGLEWVAVISYDGSNKYYADSVKGRFTISRDNSKNTLYLQMNSLRAEDTAVYYCARAPLYDILSDYWGQGTLVTVSS
VL: QLVLTQSPSASASLGASVKLTCTLSSGHSSYAIAWHQQQPEKGPRYLMKLNSDGSHSKGDGIPDRFSGSSSGAERYLTISSLQSEDEADYYCQTWGTGIVVFGGGTKLTVL
B3: the binding result in experiment [4] is given as “binds”.
